Measured values published in patent JP2003513027A.
Several values for one entry are separate records, joined by “and”; a condition that tells them apart may be missing. Equal values may be shown once.

Columns and labels:
[1] = biological target: MDA-LDL (malondialdehyde-modified low density lipoprotein); experiment: direct binding and competition assays with affinity-purified Fab
[2] = biological target: Cu-OxLDL (copper-oxidised low density lipoprotein); experiment: cell-based or functional assay
[3] = biological target: Cu-OxLDL (copper-oxidised low density lipoprotein); experiment: 125I-Cu-OxLDL binding to mouse peritoneal macrophages on ice, IK17 as competitor, % of control without competitor

Substance: IK17 human monoclonal IgG Fab
- Kd [1]: 37 nM
- degradation of 125I-Cu-OxLDL by macrophages (TCA-soluble 125I in the medium), % inhibition [2]: 50% and 65%
- % inhibition of the binding of 125I-Cu-OxLDL to macrophages [3]: 70% and 85%
